Experimental data: patent US20130137856A1, “PROTEIN BINDING DOMAINS STABILIZING FUNCTIONAL CONFORMATIONAL STATES OF GPCRS AND USES THEREOF” (priority 2010, published 2013)

Target: β2AR truncated after amino acid 365 (β2AR-365) having an amino terminal Flag epitope tag, native, agonist-bound or unliganded (human) (UniProt P07550)
Assay: cell-based or functional assay

High affinity state Ki of (-)-isoproterenol, [3H]-DHA competition binding, β2AR in HDL particles + Gs (β2AR alone: 107.5): 1.07 nM | fold increase of the affinity of isoproterenol: 100 fold
Substance: Gs heterotrimer
